Source: patent US20220372200

T1: KLA peptide acrylamide monomer (KLAAm)
T1 sequence: KLAKLAKKLAKLAK

T2: poly(KLAAm10-co-DMA10)
T2 sequence: KLAKLAKKLAKLAK

T3: poly[(KLAAm10-co-DMA10)-b-(DAAm140-co-DMA60)] (NP4)
T3 sequence: KLAKLAKKLAKLAK

T4: poly[(KLAAm10-co-DMA10)-b-(DAAm280-co-DMA120)] (NP5)
T4 sequence: KLAKLAKKLAKLAK

T5: poly[(KLAAm10-co-DMA30)-b-(DAAm140-co-DMA60)] (NP2)
T5 sequence: KLAKLAKKLAKLAK

T6: poly[(KLAAm10-co-DMA30)-b-(DAAm280-co-DMA120)] (NP3)
T6 sequence: KLAKLAKKLAKLAK

T7: poly[(KLAAm10-co-DMA30)-b-(DAAm70-co-DMA30)] (NP1)
T7 sequence: KLAKLAKKLAKLAK

T8: poly(PepAm21-co-DMA71) (P4)
T8 chain: GPLGLAGG

B1: thermolysin (protein)
chain: ITGTSTVGVGRGVLGDQKNINTTYSTYYYLQDNTRGNGIFTYDAKYRTTLPGSLWADADNQFFASYDAPAVDAHYYAGVTYDYYKNVHNRLSYDGNNAAIRSSVHYSQGYNNAFWNGSQMVYGDGDGQTFIPLSGGIDVVAHELTHAVTDYTAGLIYQNESGAINEAISDIFGTLVEFYANKNPDWEIGEDVYTPGISGDSLRSMSDPAKYGDPDHYSKRYTGTQDNGGVHINSGIINKAAYLISQGGTHYGVSVVGIGRDKLGKIFYRALTQYLTPTSNFSQLRAAAVQSATDLYGSTSQEVASVKQAFDAVGVK

Legend:
[1] = test system: T1, KLA peptide acrylamide monomer (KLAAm)
[2] = test system: T2, poly(KLAAm10-co-DMA10)
[3] = test system: T3, poly[(KLAAm10-co-DMA10)-b-(DAAm140-co-DMA60)] (NP4)
[4] = test system: T4, poly[(KLAAm10-co-DMA10)-b-(DAAm280-co-DMA120)] (NP5)
[5] = test system: T5, poly[(KLAAm10-co-DMA30)-b-(DAAm140-co-DMA60)] (NP2)
[6] = test system: T6, poly[(KLAAm10-co-DMA30)-b-(DAAm280-co-DMA120)] (NP3)
[7] = test system: T7, poly[(KLAAm10-co-DMA30)-b-(DAAm70-co-DMA30)] (NP1)
[8] = target: T8, poly(PepAm21-co-DMA71) (P4)

Molecule | percent cleavage by HPLC [1] | percent of side-chain peptides cleaved by HPLC [2] | percent of KLA peptide left uncleaved after 1 h (HPLC) [3] | percent of KLA peptide left uncleaved after 1 h (HPLC) [4] | percent of KLA peptide left uncleaved after 1 h (HPLC) [5] | percent of KLA peptide left uncleaved after 1 h (HPLC) [6] | percent of KLA peptide left uncleaved after 1 h (HPLC) [7] | cleavage of side-chain peptides monitored by HPLC [8]
trypsin | the KLA peptide underwent fast degradation, reaching 100% cleavage within 1 h | more than 90% of the side-chain peptides were cleaved within 1 h | more than 70% of KLA peptide survived during the first hour of cleavage | more than 70% of KLA peptide survived during the first hour of cleavage | more than 70% of KLA peptide survived during the first hour of cleavage | more than 70% of KLA peptide survived during the first hour of cleavage | more than 70% of KLA peptide survived during the first hour of cleavage | 
B1 |  |  |  |  |  |  |  | the polypeptide brushes were rapidly cleaved within 1 hour under the investigated conditions
